Source: US20250302974A1, “LECTIN-DRUG CONJUGATES” (UNICHEM LABORATORIES LIMITED, priority 2021, published 2025)

Assays:
[1] = test system: T24 Bladder; assay: Cytotoxic effect by MTT assay, 48 h; conditions: for Percent cytotoxicity wrt control: 48 h
Description: Cells were treated with Test Items at various concentrations (0.0001 μM-10 μM) for 48 h. The cells corresponding to Positive Control group were treated with Doxorubicin at a concentration ranging from 0.1 μM-100 μM. The Untreated cells were used as Control. After 48 h of incubation, the effect of Test Items on cytotoxicity of cells was determined by MTT assay, the plates were taken out and 20 μl of 5 mg/m1 of MTT 3-(4,5-dimethythiazol-2-yl)-2,5-diphenyl tetrazolium bromide solution was added to all the wells. Cells were incubated for 3 h at 37° C. The supernatant was aspirated. 150 μl of DMSO was added to each well to dissolve formazan crystals. The absorbance of each well was then read at 540 nm using Synergy HT micro plate reader.
The % Cytotoxicity was calculated using the formula:
Where, X=Absorbance of cells treated with Test Item; R=Absorbance of Control cells (Untreated cells maintained in growth medium only).
Selectivity Index was calculated using the formula:
SI=IC50 in Normal cell/IC50 in cancer cell.
Activity scores of the Selective Index values were categorized as: • Not selective (SI value ≤1) • Moderately selective (1<SI value <5) • Selective (SI value ≥5)

[2] = test system: human urinary bladder cancer cell line (T-24); assay: Cytotoxicity assay, cell titer glow luminescence, 72 h; type: cell-based
Description: (§1) T-24 Cell line were cultured in McCoy's 5a Medium Modified supplemented with 10% FBS and the PA-1 Cell line was cultured in EMEM Media supplemented with 10% FBS. The assay was performed by plating 5,000 cells/well and incubated at 37° C. overnight. […] Each concentration was added in triplicate and media-only wells used as a control. After incubation for 72 h cell titer glow (Promega) reagent (50 μL) was added to each well and the plates shaken for 5 mins and the luminescence was recorded. Percent viability was determined by dividing luminescence of the treated well by the non-treated well and multiplying by 100. Data was analysed using non-linear regression with a logarithmic scale.
(§2) 5,000 cells/well were plated and incubated at 37° C. overnight. Conjugates/vehicle control dilutions were made in respective media and added to cells. Volume added: 50 uL to each well. Starting treatment concentration was 1 uM for Conjugate of formula 16 and 18, and control SEQ ID NO: 5 alone and 10% for vehicle control (1×PBS with 20% DMA) and then diluted 10-fold down for a total of 11 treatment dilutions. Each concentration was analysed in triplicates. Media-only wells was used as a control to calculate percent viability. Cell titer glow reagent (volume: 50 uL) was added to each well, the plate was shaken for 5 mins and the luminescence was recorded. Drug Treatment Time: 72 hours. Percent viability was calculated by dividing the luminescence signal obtained for each treated well by the untreated well (media-only control) and multiplying by 100.

[3] = test system: ovarian cancer cell line (PA-1); assay: as above; type: cell-based
Description: as §1, §2

[4] = Glycan binding study, N-Glycan array containing 100 glycans

B1: SEQ ID NO: 2: recombinant variant of the S. rolfsii lectin amino acid sequence (reported as Rec-2 in WO2010/095143) (protein)
chain: TYKITVRVYQTNPDAFFHPVEKTVWKYANGGTWTITDDQHVLTMGGSGTSGTLRFHADNGESFTATFGVHNYKRWCDIVTNLAADETGMVINQQYYSQKNREEARERQLSNYQVKNAKGRNFQIVYTEAEGNDLHANLIIG
Percent cytotoxicity wrt control ([1]; T24, 0.0001 μM): 9.7%
Percent cytotoxicity wrt control ([1]; T24, 0.001 μM): 11.1%
Percent cytotoxicity wrt control ([1]; T24, 0.01 μM): 9.1%
Percent cytotoxicity wrt control ([1]; T24, 0.1 μM): 10.5%
Percent cytotoxicity wrt control ([1]; T24, 1 μM): 43.1%
Percent cytotoxicity wrt control ([1]; T24, 10 μM): 68.7%
IC50 ([1]; read-out: IC50 Values, T24 Bladder, after 48 h of treatment): 2130 nM
IC50 values, T-24 cell line ([2]; 72 h): 10.4 µg/mL
cytotoxic effects below 10 μM concentration ([2]; below 10 μM): does not exhibit major cytotoxic effects
IC50 values, PA-1 Cell line ([3]; 72 h): 20.3 µg/mL
cytotoxic effects below 10 μM concentration ([3]; below 10 μM): does not exhibit major cytotoxic effects
binding to N-glycans (in words) [4]: specific binding
